Assay results as given in the DeepSol protein solubility set.

Experiment: soluble on expression in E. coli; label from the status in PepcDB or PDB records

| Sequence | soluble on expression in E. coli |
| --- | --- |
| MSNQEPYRIPKRTASDPNQSGSQGSCVRPNQEGNVKKEESVNSAPRRMFTLPSSSSTSGAQVFNPIGKCQVQTNSFKIDITKMPKRLLRLSMETRLCGGKTELNLNDGVQAVAGNLNSQEDFTTQEWSQISNYLRKKNAEFKVKISPNGFVYTNGPNSLSDANRQELPRLVEIATSEVLNTPEYLQFGNQTYAVNEPAVSSPDALSEIRSGFDKSVRLVDGENGSTEIIMTIDNKLAPFHKSTSVLKMICDKFEEIVNPARQHRGSQDRRGDRDRGYRGGRSYGHDNRRRSRSRSPQDRGDRGDRGNHHRDHNEDWDERKVKEVERRLLEEPRALGSIADALKGLIVESVHLSKDVNRNSRIKLNEGKNDEQEISVADYYLKQYNYKLKFPYLPMIVSKRFRSETMFPVELLKIVPGQKISIQKINPNVQSAMTGPNSILPSKHVRIVARILESSLKIASNPYLKTFGIRISKDPIKLEAKILSPAQLSFNKYSIMPKPGSVQFEPSREDKFFKPAKIYEVAVIAFRVVSINLSDFCMKLCDLCRRSGLEIRRETRDWIKIENFNPTSTIELKEQMKRLQQSNCSIIIGITEEKKPEVHDVLKYFEAAVGLQTMQIHSKTAGFIISGNGQTAGNVIKKLNLKCGGINYIVEVPQSFNRTVVCSNNSFVQKKLFDGTQFIGFEMTHGAARTLFDKSNGTFDGEPTIVGCAYSLQKATDLGGFNWFQEQNEYRLKNLGTHIPKCLQYYKESSGSLPEKIVIYRTGAGEGDFDRVQQEITEIRSSFAEVQEGYKPSLVVIVANKTSHLRVFPVEIREGDTAMKQNVRSGTCLDGKITSAGREEFVLISQTALISTAKPTKYTIAANDPKWSKNEVMNLTYILSFAHQVCYQPPAVPHILYAADNLAKRGRNNFIQHKKLGELSKTIQATLTKYSDLNIEMDSKELSGELVEDITKSMNVMAIKARNFWA | not soluble |
| MSNQLSPKPPVNPIVMGKIGSAYGIRGWLRVFSSTEDADSIFDYQPWFIQSKSGWQLVEIEGWKYHNQDLIIKVKGADDRDAANLLTNCEIVVDSSQLPDLGVGDYYWKDLIGCQVVTVTGYELGKIIDMMETGSNDVMVIKANLKDAFGVKERLVPFLTEQVVKRVDLSAQTIEVDWDPGFLEHHHHHH | soluble |
| MSNRNGGGGGGDYQDVIESLRRTQLIFEEDDNNSSDSAPQANHLSRHQTSNSLVEDMVNHSNGNPPPVPPGITQQQCQIGLTPRMSASPPSAVSTISGTAVLGKTMARVQSNPPGSIPHNTTTTAQGIQSVAPHIPIGGGGATDDSSAEILSVFECPVCLEYMLPPYMQCSSGHLVCSNCRPKLQCCPTCRGPTPSVRNLGLEKIANTVRFPCKFSTSGCPLNFHHADKTEHEELCEFRPYCCPCPGASCKWQGGLSDVMEHLKKIHKSITTLQGEDIVFLATDINLPGAVDWVMMQSCFDYNFMLVLEKQEKYDPAQPTQMFYAVVQLIGSKKEADNFVYRLELSASRRRMSWEATPRSIHEGVVVAIQQSDCLAFDSNAAQLFAENGNLGINVTISRIDTPQRRHPNELENSDLEYD | not soluble |
| MSNSEPSTSTPSGKTKKRGKKCETSMGKSKKSKNLPRFVKIQPIFSSEKIKETVCEQGIEECKRMLKGHFNAIKDDYDIRVKDELDTDIKDWLKDASSSVNEYRRRLQENLGEGRTIAKFSFKNCEKYEENDYKVSDSTVTWIKPDRTEEGDLMKKFRAPCSRIEVGDISPPMIYWVPIEQSVATPDQLRLTHMPYFGDGIDDGNIYEHLIDMFPDGIHGFSDNWSYVNDWILYKLCRAALKDYQGSPDVFYYTLYRLWPNKSSQREFSSAFPVLCENFAEKGFDPSSLEPWKKTKIAEGAQNLRNPTCYACLAYTCAIHGFKAEIPIEFPNGEFYNAMLPLPNNPENDGKMCSGNCWKSVTMKEVSEVLVPDSEEILQKEVKIYFMKSRIAKMPIEDGALIVNIYVFNTYIPFCEFVKKYVDEDDEESKIRSCRDAYHLMMSMAENVSARRLKMGQPSNRLSIKDRVNNFRRNQLSQEKAKRKLRHDSLRIQALRDGLDAEKLIREDDMRDSQRNSEKVRMTAVTPITACRHAGPCNATAENCACRENGVCSYMCKCDINCSQRFPGCNCAAGQCYTKACQCYRANWECNPMTCNMCKCDAIDSNIIKCRNFGMTRMIQKRTYCGPSKIAGNGLFLLEPAEKDEFITEYTGERISDDEAERRGAIYDRYQCSYIFNIETGGAIDSYKIGNLARFANHDSKNPTCYARTMVVAGEHRIGFYAKRRLEISEELTFDYSYSGEHQIAFRMVQTKERSEKPSRPKSQKLSKPMTSE | not soluble |
| MSNSFEILMNQLGMPAEMRQAPALAQANIERVVVHKISKVWEFHFVFSNILPIEIFLELKKGLSEEFSKTGNKAVFEIKARSQEFSNQLLQSYYREAFSEGPCASQGFKSLYQNLQVRAEGNQLFIEGSEAIDKEHFKKNHLPNLAKQLEKFGFP | not soluble |
| MSNTMQGAHYPQMAFDPTWQMHPAYATATAFNPYNVSFDFTRSPNTSGGSDESMSDGSKIDPKRSPKYLEKRMKNNEAAKKSRASRKHREQKNQTENELLKRKNAALEEELKQAKCELAQMQITIRDMSIEREAYRRENEMLKMVNNKFADSKFEPPQPLRDMTNCNLPYKYELLS | not soluble |
| MSNTQAERSIIGMIDMFHKYTRRDDKIDKPSLLTMMKENFPNFLSACDKKGTNYLADVFEKKDKNEDKKIDFSEFLSLLGDIATDYHKQSHGAAPCSGGSQ | not soluble |
| MSNVQNASRSSAFAAVEGDHWVESLDDGRHVLIRPLREEDRERERQFINRLSPATRHFRFLGEIKEASPALLDQLMDIDYQQSMAFVALVHEDGELREVGISRYAACCEEGQCECAVTIADDYQGLGLDAVLMRHLIDVARRNGFRQMYSVDSAANRAMRDLCCALGFVGQRDPDDSTQVIHRLAL | not soluble |
| MSNYTWKQADIQTLISFYETLGEEINPKVQKVQQNSEANSFSEKAKKFGLLDLPIYSKCVDSSQLIAESASRVYHDAKEYMNNGSATEAELYRFVSSILKEVLEPIFNPKEIRNVLKGLITSLVDSRSRDEEIGSDIEKNVKYEVVRFLPESPPNFPGFNDNVSRSITNFIGYFALHTIRHHCYVNFGVDGELKFYQRNMYKKAFDDLRVNKAKPTVSVKPEASLKREPKAETPTLTRVKPEIRNDSDEDFCEIIEPAVKKSKTRQTSESNAKGGKELKDFPEKYMLEDLDKDDLPMNFKTKFRKLVEQNQMLRDEINDYKELIQLKIAEKKQRMG | not soluble |
| MSPHPPQPHPPMPPMPPVTAPPGAMTPMPPVPADAQKLHQSTGNDACIKRLQQLNVEDGAKMYMKPTEPGKMGRPVDIQTNVFGIEVTKETTVHRFMVHAKADLTSTKEVTFTKKGKEDFVVQDRRDKCCNIFFLAVEKNPEFFKMKDGNQIVYDGQSTLYTTVNLFSELDANGTKSKVFQINGADTGNDDLKTLPCISLEIYAPRDNSITLSSENLGKRTADQNIEVNNREYTQFLELALNQHCVRETNRFGCFEHGKVYFLNATEEGFDQRDCVDVGDGKQLYPGLKKTIQFIEGPYGRGQNNPSLVIDGMKAAFHKEQTVIQKLFDITGQDPSNGLNNMTREKAAAVIKGLDCYSTYTNRKRHLRIEGIFHESATKTRFELPDGKTCSIAEYYADKYKISLQYPNANLVVCKDRGNNNYFPAELMTVSRNQRVTIPQQTGNQSQKTTKECAVLPDVRQRMIITGKNAVNITLENELLVALGIKVYSEPLMVQARELDGKELVYQRSVMSDMGKWRAPPGWFVKPATVPDLWAAYAVGNPGCRFSIGDVNQLVGMFIDSCKKKGMVIKPPCETGLYSTEKIMTQLEKVAASKCKYVLMITDDAIVHLHKQYKALEQRTMMIVQDMKISKANAVVKDGKRLTLENIINKTNVKLGGLNYTVSDAKKSMTDEQLIIGVGVSAPPAGTKYMMDNKGHLNPQIIGFASNAVANHEFVGDFVLAPSGQDTMASIEDVLQNSIDLFEKNRKALPKRIIIYRSGASEGSHASILAYEIPLARAIIHGYSKEIKLIFIVVTKEHSYRFFRDQLRSGGKATEMNIPPGIVLDNAVTNPACKQFFLNGHTTLQGTAKTPLYTVLADDCKAPMDRLEELTFTLCHHHQIVSLSTSIPTPLYVANEYAKRGRDLWGELTTKGPIEAKESQGERLKELTKEIGYKQTDLNQKRVNA | not soluble |
| MSPKSKSTNKTYTIVIKLGTSSICDEKTHEPLISNLSLIVETVVKLRKLGHNVVLVSSGGIAMGLRRLDLPKRPSKLSAVQAIAAVGQGRLISLWDTLFTQLRQPIAQVLITRNDIAERSQYVNAANTISELLHFGVVPIVNENDTLSVQEIRFGDNDTLSAITAGMINADYLFLLTDVDCLYTDNPRTNPDAKPILKIHDTSMVNANVSTPGSGVGTGGMKTKLIAADLGTSSGVNVIICRGSKPSSIFDIIRQESSDNKNESVELPLHTHFVAKKQGRIRDRHFWLLHGLKSHGSLEIDRGAFEAITRTNRAGLLPVGVTKVHGHFSAHQAVTVIYNGEEIGRALVNYSSTEIDLIKGKRSKEIASILGYNETEYVAYRDYLVVHGLNSHHDSQVSSDEH | soluble |
| MSPSLLGSSFLRSASGNFTKFASIRNAHFLSSVPMKKRGVDGNLPKDYFENKTVVVYFSAGWCGSCKFLTPKIKKFYNAVKESDAGKNLEIVWVSKDKEAAHQEEYYEKNLPDWPYIPFGDENIQKLSEKYKAVVIPVLKLVNSNGDVVHDRVRADVEAGIKADPVKTMEEWKKLLNQ | not soluble |
| MSQAELFTISDLAREFDVTLRTIRFYEEQGLIEPQRDGRQRLFTRRDRGRLKLILRGKRIGLSLAEIREIIDMYQLARDEASQSQKLLDLLLARRRQLEAQRRDIDAVLDEIATLENHCRDVIDSQSSVA | not soluble |
| MSQAHTPSAPLAEVYDVAVVGGGINGVGIAADAAGRGLSVFLCEQHDLAQHTSSASSKLIHGGLRYLEHYEFRLVREALAEREVLLAKAPHIVKPLRFVLPHRPHLRPAWMIRAGLFLYDHLGKREKLPASRGLRFTGSSPLKAEIRRGFEYSDCAVDDARLVVLNAISAREHGAHVHTRTRCVSARRSKGLWHLHLERSDGSLYSIRARALVNAAGPWVARFIQDDLKQKSPYGIRLIQGSHIIVPKLYEGEHAYILQNEDRRIVFAIPYLDRFTMIGTTDREYQGDPAKVAISEEETAYLLQVVNAHFKQQLAAADILHSFAGVRPLCDDESDEPSAITRDYTLSLSAGNGEPPLLSVFGGKLTTYRKLAESALTQLQPFFANLGPAWTAKAPLPGGEQMQSVEALTEQLANRYAWLDRELALRWARTYGTRVWRLLDGVNGEADLGEHLGGGLYAREVDYLCKHEWAQDAEDILWRRSKLGLFLSPSQQVRLGQYLQSEHPHRPRVHAALEHHHHHH | soluble |
| MSQFFYIHPDNPQQRLINQAVEIVRKGGVIVYPTDSGYALGCKIEDKNAMERICRIRQLPDGHNFTLMCRDLSELSTYSFVDNVAFRLMKNNTPGNYTFILKGTKEVPRRLLQEKRKTIGMRVPSNPIAQALLEALGEPMLSTSLMLPGSEFTESDPEEIKDRLEKQVDLIIHGGYLGQKPTTVIDLTDDTPVVVREGVGDVKPFL | soluble |
| MSQIEKKQLQLGYIPLLDCIALLWAKERGYFEEMGLDVTLVKEASWASLRDRLAFGILDAAHCLSAMLPAAAIGEDQIGIPLKTPLVLSKNRAYISLSQKLCYELSIQNADNAQENSAKLVKYLEQEQSIALAHVFHHSIHHYCLREWLALSHLDLAKAIQLKTLPPPYMLDALASASIDGFCVGEPWNTQGEIEGYSQIVASSRDIIPEVADKVLAVTEEWAAHHPNTVIALTAAILKAQQELETLSNLEPVWQILINFNIVRFQCSKSVHVKSYHALEQIIRHLVVGQAAPCSEDMLWLFGQMQKWHDLTIETTALNELSQRCIDQNSFEKAMQHVQSNTGLEHHHHHH | not soluble |
